Laboratory results from the Human Domainome abundance scans (Beltran et al. 2025).
± gives the uncertainty stated by the source.

B1: Glucocorticoid receptor, residues 419 to 494; numbered along this chain, P04150 (parent)
chain: KLCLVCSDEASGCHYGVLTCGSCKVFFKRAVEGQHNYLCAGRNDCIIDKIRRKNCPACRYRKCLQAGMNLEARKTK

Variants of: B1
Assay: abundance fitness (aPCA) (normalised: wild type 0, dead -1); higher = more abundant; growth selection in yeast, the domain comes from the species named
Settings: Homo sapiens

Variant	abundance fitness
KLCWVCSDEASGCHYGVLTCGSCKVFFKRAVEGQHNYLCAGRNDCIIDKIRRKNCPACRYRKCLQAGMNLEARKTK [L4W]	-0.068 ± 0.041
KLCLVCSDEASGCHYGSLTCGSCKVFFKRAVEGQHNYLCAGRNDCIIDKIRRKNCPACRYRKCLQAGMNLEARKTK [V17S]	-0.172 ± 0.052
KLCLVCSDEASGCHYGVLTCGSCKVFFKRAVGGQHNYLCAGRNDCIIDKIRRKNCPACRYRKCLQAGMNLEARKTK [E32G]	-0.04 ± 0.036
KLCLICSDEASGCHYGVLTCGSCKVFFKRAVEGQHNYLCAGRNDCIIDKIRRKNCPACRYRKCLQAGMNLEARKTK [V5I]	-0.007 ± 0.051
KLCLVCSDEASGCHYGVLTNGSCKVFFKRAVEGQHNYLCAGRNDCIIDKIRRKNCPACRYRKCLQAGMNLEARKTK [C20N]	-0.75 ± 0.26
KLCLVCSDEASGCHYGVLTCGSCKVFFMRAVEGQHNYLCAGRNDCIIDKIRRKNCPACRYRKCLQAGMNLEARKTK [K28M]	-0.002 ± 0.049
KLCLVCSDEASGCHYGVLTCGSCKVFFERAVEGQHNYLCAGRNDCIIDKIRRKNCPACRYRKCLQAGMNLEARKTK [K28E]	0.007 ± 0.047
KLCLVCSDEASGCHYGVLTCGSCKVFFKRAVEGQHNYLCAGRNDCIIDKIRPKNCPACRYRKCLQAGMNLEARKTK [R52P]	-0.203 ± 0.064
KLCLVCSDEASGCHYGVLTCGSCKVFFKRAVEGQHNYLCAGRNDCIIDKIRRKNCPACRYRKCLQAGMNLEAIKTK [R73I]	-0.066 ± 0.07
KLCLVCSDEASGCHYGVLTCGSCKVFFKRAVEVQHNYLCAGRNDCIIDKIRRKNCPACRYRKCLQAGMNLEARKTK [G33V]	-0.044 ± 0.034
KLCLVCSDEASGCHYGVLTCGSCKSFFKRAVEGQHNYLCAGRNDCIIDKIRRKNCPACRYRKCLQAGMNLEARKTK [V25S]	-0.017 ± 0.05
KLCLVRSDEASGCHYGVLTCGSCKVFFKRAVEGQHNYLCAGRNDCIIDKIRRKNCPACRYRKCLQAGMNLEARKTK [C6R]	-0.852 ± 0.085
KLCLVCSDEASGCHYGVLTCGSCKVFFKRAVEGQHNYLCDGRNDCIIDKIRRKNCPACRYRKCLQAGMNLEARKTK [A40D]	-0.136 ± 0.085
KLCLVCSDEASGCHYGVLTCGSCKVFFKRAVEGQHNQLCAGRNDCIIDKIRRKNCPACRYRKCLQAGMNLEARKTK [Y37Q]	-0.137 ± 0.13
KLCLVCSDEASGCHYGVLTCGSCKVFFKRAVEGQHNYLCAGRNDCIIDKIRRKNCPACRYRKCLQAGYNLEARKTK [M68Y]	-0.215 ± 0.085
KLCLVCSDEASGCHYGVLTCGSCKVFFKRAVEGQHNYLCAGRADCIIDKIRRKNCPACRYRKCLQAGMNLEARKTK [N43A]	-0.027 ± 0.034
KLCLVCSDEASGCHYGVLTCGSCVVFFKRAVEGQHNYLCAGRNDCIIDKIRRKNCPACRYRKCLQAGMNLEARKTK [K24V]	0.015 ± 0.059
KLCLVCSDEASGCHYGVLTCGSCKVFFKRAVEGQHNYLRAGRNDCIIDKIRRKNCPACRYRKCLQAGMNLEARKTK [C39R]	-0.976 ± 0.1
KLCLVCSDEASGCHYGVLTCGSCKVFFKRAVEGQHNYLCAGRNDCIIDKIRGKNCPACRYRKCLQAGMNLEARKTK [R52G]	-0.016 ± 0.039
KLCLVCSDEASGCHYGVLTCGSCKVFFKRAVEGQHNYLCMGRNDCIIDKIRRKNCPACRYRKCLQAGMNLEARKTK [A40M]	-0.058 ± 0.046
KLCLVCSDEASGCHYGVLTCGSCKVEFKRAVEGQHNYLCAGRNDCIIDKIRRKNCPACRYRKCLQAGMNLEARKTK [F26E]	-0.891 ± 0.12
KLCLVCSDEASGCHYGVLTCGSCKVFFKRAVEGQHNYLCAGRNDCIIDKIRRKNCPACRYRKCWQAGMNLEARKTK [L64W]	-0.031 ± 0.038
KLCLVCSDEASGCHYGVLTCGSCKVFFKIAVEGQHNYLCAGRNDCIIDKIRRKNCPACRYRKCLQAGMNLEARKTK [R29I]	0.018 ± 0.064
KLCLVCSDEASGCHYGVLTCGSCKVFFKRAVEGQHNYLCAGGNDCIIDKIRRKNCPACRYRKCLQAGMNLEARKTK [R42G]	0.009 ± 0.027

Variant	abundance fitness
KLCLVCSDEASGCAYGVLTCGSCKVFFKRAVEGQHNYLCAGRNDCIIDKIRRKNCPACRYRKCLQAGMNLEARKTK [H14A]	-0.077 ± 0.035
KLCLVCKDEASGCHYGVLTCGSCKVFFKRAVEGQHNYLCAGRNDCIIDKIRRKNCPACRYRKCLQAGMNLEARKTK [S7K]	0.032 ± 0.046
KLCLVCSDQASGCHYGVLTCGSCKVFFKRAVEGQHNYLCAGRNDCIIDKIRRKNCPACRYRKCLQAGMNLEARKTK [E9Q]	-0.017 ± 0.056
KLCLVCSDEASGCHYGVLTCGSCKVFFKRAVEGQHNYLCAGRNDCINDKIRRKNCPACRYRKCLQAGMNLEARKTK [I47N]	-0.164 ± 0.1
KLCLVCSDEASGCHYGVLTCGSCKVFFKRAVEGQHNYLCAGRNDCIIDKIRRKNCPACRYRKCLQAGMNLESRKTK [A72S]	-0.067 ± 0.042
KLCLVCSDEASGCHYGVLTCGSCKVFFKRAVEGQHNYLCAGRNDCIIDKIRRKNCPACRYRKCLQNGMNLEARKTK [A66N]	-0.02 ± 0.075
KLCNVCSDEASGCHYGVLTCGSCKVFFKRAVEGQHNYLCAGRNDCIIDKIRRKNCPACRYRKCLQAGMNLEARKTK [L4N]	-0.01 ± 0.047
KLCLVCSDEASGCHYGVLTCGSCKVFFKRAVEGQHNYLCAGRNDCIIDKIRRKNCPACRYRKCLQAKMNLEARKTK [G67K]	-0.308 ± 0.082
KLCLVCSDEASGCHYGVLTCGSCFVFFKRAVEGQHNYLCAGRNDCIIDKIRRKNCPACRYRKCLQAGMNLEARKTK [K24F]	-0.092 ± 0.066
KLCLVCSDEASGCHYGVLTCGSCKVFMKRAVEGQHNYLCAGRNDCIIDKIRRKNCPACRYRKCLQAGMNLEARKTK [F27M]	-0.144 ± 0.052
KSCLVCSDEASGCHYGVLTCGSCKVFFKRAVEGQHNYLCAGRNDCIIDKIRRKNCPACRYRKCLQAGMNLEARKTK [L2S]	-0.023 ± 0.037
KLCLVCSDEASGCHYGVLTCGSCKVFFKRAVEGQHNYLCAGRNDCIIDKIRRKNKPACRYRKCLQAGMNLEARKTK [C55K]	-0.877 ± 0.21
KLCLVCSDEASGCHYGVLTCGSCKVFFKRAVEGQHNYLCAGRNDCIIDKIRRKNCPACRYRKCLQAGRNLEARKTK [M68R]	-0.719 ± 0.059
KLCLVCSDEASGCHYGVLTCGSCKVFFKRAVEGQHNYLCAGRNDCIIDKIRRKNCPACRYRKCLQAGMNAEARKTK [L70A]	-0.058 ± 0.036
KLCLVCSDEASGCHYGVLTCGSCKVFFKRANEGQHNYLCAGRNDCIIDKIRRKNCPACRYRKCLQAGMNLEARKTK [V31N]	-0.104 ± 0.082
KLCGVCSDEASGCHYGVLTCGSCKVFFKRAVEGQHNYLCAGRNDCIIDKIRRKNCPACRYRKCLQAGMNLEARKTK [L4G]	-0.03 ± 0.032
KLCLVCTDEASGCHYGVLTCGSCKVFFKRAVEGQHNYLCAGRNDCIIDKIRRKNCPACRYRKCLQAGMNLEARKTK [S7T]	-0.02 ± 0.051
KLCLVCSDEASGCHYGVLTCGSCKVFFKRHVEGQHNYLCAGRNDCIIDKIRRKNCPACRYRKCLQAGMNLEARKTK [A30H]	-0.292 ± 0.09
KLCLVCSDEASGCHYGVLTCGSCKVFFKRAVEGQHNYLCAGRNDCIIDKGRRKNCPACRYRKCLQAGMNLEARKTK [I50G]	0.009 ± 0.029
KLCLVCSDEASGCHYGVLACGSCKVFFKRAVEGQHNYLCAGRNDCIIDKIRRKNCPACRYRKCLQAGMNLEARKTK [T19A]	-0.031 ± 0.038
KLCSVCSDEASGCHYGVLTCGSCKVFFKRAVEGQHNYLCAGRNDCIIDKIRRKNCPACRYRKCLQAGMNLEARKTK [L4S]	-0.026 ± 0.039
KLCLVCSDEASGCHYGVLTCGSCKVFFKRAVEGQHNYLCAGRNDCIIDKIRRKNCPACRYRDCLQAGMNLEARKTK [K62D]	-0.336 ± 0.082
KLCLVCSDEASGCHYGVLTCGSCRVFFKRAVEGQHNYLCAGRNDCIIDKIRRKNCPACRYRKCLQAGMNLEARKTK [K24R]	-0.105 ± 0.054
KLCLVCSDEASGCHYGVLTCGSCKVFFKRAVEGQHNYLCAGRNDCIIDKIRRKNCPACRYRKCLQAEMNLEARKTK [G67E]	-0.228 ± 0.07

Variant	abundance fitness
KLCLVCSDEASGCHYGVLTCGSCKVFFKRAVEGQHNYLWAGRNDCIIDKIRRKNCPACRYRKCLQAGMNLEARKTK [C39W]	-0.992 ± 0.12
KLCLVCSDEASGCHYGVLTCGSCKVFFKRAVEGQHNYLCAGRNDCIIDKIRCKNCPACRYRKCLQAGMNLEARKTK [R52C]	0.051 ± 0.15
KLCLVCSDEASGCHYGVLTCGSCKVFFKTAVEGQHNYLCAGRNDCIIDKIRRKNCPACRYRKCLQAGMNLEARKTK [R29T]	-0.029 ± 0.056
KLCLVCSDEASGCHYGVLTCGSCKVFFKRAVEGQHNYLCAGRNDCIIDKIRRKNCPACRKRKCLQAGMNLEARKTK [Y60K]	-0.011 ± 0.054
KLCLVCSDEASECHYGVLTCGSCKVFFKRAVEGQHNYLCAGRNDCIIDKIRRKNCPACRYRKCLQAGMNLEARKTK [G12E]	-0.057 ± 0.044
KLCLVCSDEASGCHYGVLTCGSCKVFFKRALEGQHNYLCAGRNDCIIDKIRRKNCPACRYRKCLQAGMNLEARKTK [V31L]	-0.036 ± 0.033
KLCLVCSDEASGCHYGVLTCGSCKVFFKRAVEGQNNYLCAGRNDCIIDKIRRKNCPACRYRKCLQAGMNLEARKTK [H35N]	0.11 ± 0.08
KLCLVCSDEASGCHYGVLTCGSCKVFFKRAVEGQHNYLCAGRNDCIIRKIRRKNCPACRYRKCLQAGMNLEARKTK [D48R]	-0.536 ± 0.04
KLCLVCSDEASGCHYGVLTCGSCKVFFKRMVEGQHNYLCAGRNDCIIDKIRRKNCPACRYRKCLQAGMNLEARKTK [A30M]	0.051 ± 0.053
KLCLVCSDEASGCHYGVLTCGSCGVFFKRAVEGQHNYLCAGRNDCIIDKIRRKNCPACRYRKCLQAGMNLEARKTK [K24G]	-0.018 ± 0.051
KLCLVCSDEASGCHYGVLNCGSCKVFFKRAVEGQHNYLCAGRNDCIIDKIRRKNCPACRYRKCLQAGMNLEARKTK [T19N]	-0.557 ± 0.14
KLCLVCSDEASGCVYGVLTCGSCKVFFKRAVEGQHNYLCAGRNDCIIDKIRRKNCPACRYRKCLQAGMNLEARKTK [H14V]	-0.367 ± 0.042
KLCAVCSDEASGCHYGVLTCGSCKVFFKRAVEGQHNYLCAGRNDCIIDKIRRKNCPACRYRKCLQAGMNLEARKTK [L4A]	-0.096 ± 0.043
KLCLVCSDEASGCHYGVLTCGSCKVFFKRAVEGQHNYLCAGRNDCIIDKIRRKNCPACRYRKCLQAGGNLEARKTK [M68G]	-0.574 ± 0.055
KLCLVCSDEASGCHYGVLTCGSCKVFFKRAIEGQHNYLCAGRNDCIIDKIRRKNCPACRYRKCLQAGMNLEARKTK [V31I]	0.037 ± 0.051
KLCLVCSDEASGCHYGVLTCGSCKVFFKRAVEGQHNYPCAGRNDCIIDKIRRKNCPACRYRKCLQAGMNLEARKTK [L38P]	-0.155 ± 0.047
KLCLVCSDEASGCHYGVLTCGSCKVFFKRAVEGQHNYLCAGRNDCIIDKIRRKNCPAERYRKCLQAGMNLEARKTK [C58E]	-0.633 ± 0.091
KLCLVCSDEASGCHYVVLTCGSCKVFFKRAVEGQHNYLCAGRNDCIIDKIRRKNCPACRYRKCLQAGMNLEARKTK [G16V]	-0.738 ± 0.079
KLCLVCSDEASGCHYGVLTCGSCKVFFKRAVEGQHNYLCAGRNDCIIDKIRRKNCPACRYRKCDQAGMNLEARKTK [L64D]	-0.296 ± 0.064
KLCLVCSDEASGCHYGVLTCGSCKVFFKRAVEGQHNYLCAGRNDCIIDKIRRKNCPACRYRKCLQAGMNFEARKTK [L70F]	-0.08 ± 0.065
KLCLVCSDEASGCHYGVLTCGSCKVFFKRAVEGQHNYLCAGRNDCIIDKISRKNCPACRYRKCLQAGMNLEARKTK [R51S]	-0.023 ± 0.039
KLCLVCSDEASGCHYGVLTHGSCKVFFKRAVEGQHNYLCAGRNDCIIDKIRRKNCPACRYRKCLQAGMNLEARKTK [C20H]	-0.918 ± 0.31
KLCLVCSDEASGCHYGVGTCGSCKVFFKRAVEGQHNYLCAGRNDCIIDKIRRKNCPACRYRKCLQAGMNLEARKTK [L18G]	-0.191 ± 0.042
KLCLVCSDEASGSHYGVLTCGSCKVFFKRAVEGQHNYLCAGRNDCIIDKIRRKNCPACRYRKCLQAGMNLEARKTK [C13S]	-0.037 ± 0.037
